The values that follow are results of earlier work, collected in PMC7396566.

The target in data set [1] is TSLP:TSLPR complex (Homo sapiens) (UniProt Q969D9).
The target in data set [2] is TSLP (Homo sapiens) (UniProt Q969D9).
Data set [3] deals with IL-7Rα (Homo sapiens) (UniProt P16871).

Chain of TSLPR (Q9HC73 23-231): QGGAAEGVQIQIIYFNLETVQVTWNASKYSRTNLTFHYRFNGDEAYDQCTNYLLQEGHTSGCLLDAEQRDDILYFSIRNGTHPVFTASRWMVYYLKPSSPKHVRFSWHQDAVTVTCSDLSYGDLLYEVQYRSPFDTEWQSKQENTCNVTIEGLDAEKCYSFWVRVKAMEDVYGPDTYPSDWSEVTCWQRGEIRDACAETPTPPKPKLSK

With IL-7Rα (from UniProt P16871), the Kd in data set [1] was 29 nM.

For TSLPR (from UniProt Q9HC73), the Kd is 32 nM in data set [2] and 20000 nM in data set [3].
